A short description of series [1]: purified protein yield per well (BCA); higher = higher soluble expression. The gist of the method: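 Each candidate enzyme was grown in E. coli C41(DE3) in a 2 mL autoinduction culture (100 µg/mL kanamycin; 2 h at 37 °C, then 40 h at 18 °C) and purified robotically via Ni-charged magnetic beads with SUMO protease cleavage. Purified protein yield per well was assessed using the Pierce Rapid Gold BCA kit. Readings below 25 ug (0.1 mg/mL) are beneath the detection threshold.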

Series [2] in a line: melting temperature (DSF); higher = more thermostable. The gist of the method:
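Values are melting temperatures from differential scanning fluorimetry. Candidate enzymes were expressed in E. coli C41(DE3), purified on nickel beads and freed by SUMO protease cleavage. In sealed PCR plates on a Bio-Rad CFX96, 45 μL enzyme (0 to 0.3 mg/mL) was combined with 5 μL 5X Sypro Orange. Fluorescence was recorded from 25 °C for 250 cycles, rising 0.3 °C per cycle at a ramp of 0.3 °C/s.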

A short description of series [3]: PET hydrolysis, aromatic products released after 48 h (umol product/mg enzyme); higher = more PET depolymerization activity. The essentials:
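Amorphous PET film or crystalline PET powder (3.5 mg) in 450 μL of 50 mM NaCitrate (pH 4.5, 5.5), 50 mM NaPhosphate (pH 6.5, 7.5) or glycine (pH 8.5) received 5 μg (50 μL) of candidate enzyme. That enzyme was purified on nickel beads and freed of its tag by SUMO cleavage. After 48 h at 40 or 60 °C in sealed plates without shaking, absorbance of the supernatant at 260 and 280 nm was read against buffer blanks. PET hydrolysis activity is this aromatic product expressed per mg enzyme.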

Where [4] appears, read: substrate: aFilm, 40 °C, pH 4.5.
The mark [5] stands for this setting: substrate: aFilm, 40 °C, pH 5.5.
The mark [6] stands for this setting: substrate: aFilm, 40 °C, pH 6.5.
Setting [7] is: substrate: aFilm, 40 °C, pH 7.5.
[8] abbreviates: substrate: aFilm, 60 °C, pH 4.5.
Setting [9] is: substrate: aFilm, 60 °C, pH 5.5.
Setting [10] is: substrate: aFilm, 60 °C, pH 6.5.
The mark [11] stands for this setting: substrate: aFilm, 60 °C, pH 7.5.
[12] abbreviates: substrate: cryPow, 40 °C, pH 4.5.
Setting [13] is: substrate: cryPow, 40 °C, pH 5.5.
Where [14] appears, read: substrate: cryPow, 40 °C, pH 6.5.
Where [15] appears, read: substrate: cryPow, 40 °C, pH 7.5.
Where [16] appears, read: substrate: cryPow, 60 °C, pH 4.5.
Setting [17] is: substrate: cryPow, 60 °C, pH 5.5.
Where [18] appears, read: substrate: cryPow, 60 °C, pH 6.5.
[19] abbreviates: substrate: cryPow, 60 °C, pH 7.5.

± gives the standard deviation of the averaged measurements.

With “ADNPYQRGPDPTQSSVTAVNGPFANTSVSVPTGYGFNGGRIYYPTDTSQGTFGAIAISPGYTALFSAELAWMGPWLASHGFVVIGIETNSRNDFDTARGTQLLAALDYLTQQSPVRDRVDPTRLAVAGHSMGGGGALSAAMRRPSLKAVVGIAPYSPSSNLANDRVPTMILSGQADTVVTPSYATGLYNSLPSTTESVYLEVAGADHGFMVGRPNPVMVRTMLPFVKMFVDNDARYSQFLCPLLDSSGVVTYRSTCPLLPTTPTTPTPTTPGPTTPGPTPTVSPSVPPTSAGEIVGTQSGRCIDVPNASRNNGTRVQLYDCNRQTNQTWTYTSGKQLQVYGNMCLDAAGTGNGAAVQIYSCHSQTNQQWNINANGTISNVQSGRCLDAWSTANGAQIQLYDCHGQTNQQFRLVARA [ESM075]”, in series [1], the “purified protein yield per well” value was 233 µg. This sequence also registered a melting temperature in series [2] of 62.2 C. In addition, the PET hydrolysis in series [3] (setting [4]) was less than 3; in series [3] (setting [5]), 4; in series [3] (setting [6]), less than 3; in series [3] (setting [7]), less than 3; in series [3] (setting [8]) it was less than 3; in series [3] (setting [9]), less than 3. For the same sequence, the PET hydrolysis in series [3] (setting [10]) was less than 3; in series [3] (setting [11]) it was less than 3; in series [3] (setting [12]) it was 12.5 ± 2.1; in series [3] (setting [13]), 21 ± 1.4; in series [3] (setting [14]), 23 ± 1.4; in series [3] (setting [15]) it was 7. Also, the PET hydrolysis was less than 3 in series [3] (setting [16]), 1.5 ± 2.1 in series [3] (setting [17]), less than 3 in series [3] (setting [18]) and less than 3 in series [3] (setting [19]).

Regarding “NPYERGPAPTTSSIEASRGSFATSTTTVSRLAVSGFGGGTIYYPTSTASGTFGAVSIAPGFTATQSSMAWLGPRLASQGFVVFTIDTITTSDQPDSRGRQLLSSLDYLTQQSSVRSRIDSSRLGVVGHSMGGGGTLEAARSRPSLQAAVPLTGWNLTKSWSTVRVPTLVVGAQADTVAPVASHSIPFYTSLPSSLDKAYLELRGASHFAPNSANTTIAKYTLSWLKRFIDDDTRYEQFLCPIPGTSTTISDYRGNCPHAG [ESM140]”, in series [1], the “purified protein yield per well” value stood at 187 µg. The same sequence had a melting temperature in series [2] of 51.7 C. Also, the PET hydrolysis is less than 3 in series [3] (setting [12]); 5 in series [3] (setting [13]); 22 in series [3] (setting [14]); 33 in series [3] (setting [15]); less than 3 in series [3] (setting [16]); 4 in series [3] (setting [17]). Moreover, the PET hydrolysis in series [3] (setting [18]) was found to be 8; in series [3] (setting [19]), 9.

Regarding “GRVMAASDSGTAADERVYAEPSVDPASVGSAGRNPYERGPEPTLASVAAEYGPFDTDQLTVPPGHGFNGGYIYYPTDTSQTFGAVAIVPGYTALFADEEAWMGPRLASFGFVVIGIETNSRDDWDIARGEQLLAALDYLVHHSPVRARIDANRLAVVGHSMGGGGALFAATQRPSLKAVVALAPYFPSGSLAAIRVPTMIIGGQDDTVVTPSYLDDLYASRPAHTPGAYLMLADADHLFATRPNTVEMRLLIPWLKIFVDHDTRYTQFLCPVADRSGIARHHVT [TEP126]”, the “purified protein yield per well” value in series [1] was 166 µg. This sequence came in with a melting temperature in series [2] of 55.9 C. Also, the PET hydrolysis in series [3] (setting [12]), in series [3] (setting [13]), in series [3] (setting [14]), in series [3] (setting [15]), in series [3] (setting [16]) and in series [3] (setting [17]) was less than 3 in each case. The PET hydrolysis in series [3] (setting [18]) and in series [3] (setting [19]) was less than 3 throughout.

As for “AESPYQRGPDPTRESVAASRGTFATAEVSVPAGNGFGGGVIYYPTDTSQGTFGGVAIVPGYTATWAAEGAWMGHWLASFGFVVIGIDTINRNDWDTARGTQLLAALDYLTQRSSVRNRVDANRLAVMGHSMGGGGAMHAALQRPSLKAAIGLAPFSPSQNLTNMRVPTLLVAGQNDTTTTPTSILNLYNGIPATTEKAYLELTGAGHGFPTSANSVMTRKVIPWLKIFVDHDTRYHQFLCPLLDWTGITAYRSSCPLNPPGGPTGSTFSLVGADSGKCVDVPGASRTNGTGLITYTCNGASNQRWTQTAANELRIYDNSKCMEAGTSAGSRAVITSCTGGNGQKWTFNANGTITHAQSGLCLYVNGGSTANQAAVIVWTCHGGSNQVWTRQP [TEP163]”, the “purified protein yield per well” value in series [1] turned out to be 148 µg. Besides, in series [2], the melting temperature stood at 73 C. Besides, the PET hydrolysis is less than 3 in series [3] (setting [12]); 8 in series [3] (setting [13]); 8 in series [3] (setting [14]); 5 in series [3] (setting [15]); less than 3 in series [3] (setting [16]); less than 3 in series [3] (setting [17]). The figures for the PET hydrolysis in series [3] (setting [18]) and in series [3] (setting [19]) were 3 and less than 3, respectively.

As for “ADNPYQRGPNPTLASVAANRGTFATAQTSVPAGNGFGGGVIYYPTDTSQTFGGVAIVPGYSALFANEEAWMGPWLASFGFVVIGIETNSRTDSADARGTQLLAALDYLTQRSSVRDRVDPNRLSVVGHSAGGAGVLSAILRRPTLKAGIGLAPGSPVGDYGLSNDRVPTMFISGQRDTTVTQSYLNGLYTTIPASTPSAWVEITGVDHLFATRANTTEMRVLIPWLKIWVDNDTRYTQFLCPLADSSNISMYRNKCPYVPPGGSPSPSASPSSSPSQSPSQSPSQSPSQSPSQSPSTSPSPPPPGACVAEYQPQNSWPGGYQALVTVKAGSSAINGWTVRWTLGSGQTISQAWNGTLSTSGSAVTVKNASYNGSLPAGGSTSFGFLATGTPSTPTLTCTSP [ESM013]”, in series [1], the “purified protein yield per well” value was 431 µg. For the same sequence, the melting temperature in series [2] amounted to 59.8 C. For the same sequence, the PET hydrolysis in series [3] (setting [4]), in series [3] (setting [5]), in series [3] (setting [6]), in series [3] (setting [7]), in series [3] (setting [8]) and in series [3] (setting [9]) was less than 3 in each case. The PET hydrolysis in series [3] (setting [10]), in series [3] (setting [11]), in series [3] (setting [12]), in series [3] (setting [13]), in series [3] (setting [14]) and in series [3] (setting [15]) was less than 3 each time. Moreover, the PET hydrolysis in series [3] (setting [16]), in series [3] (setting [17]), in series [3] (setting [18]) and in series [3] (setting [19]) was less than 3 in each case.

As to “ADNPYERGPNPTQASIAASRGTFATAEVSVGGGNGFAAAKIYYPTDTSQGTFGAIAIVPGYTATWAAEGAWMGPWLASFGFVVIGIDTLSRNDFDTARGTQLLAALDYLTQRSSVRSRVDASRLAVMGHSMGGGGAISAALRRPSLKAAVGLAPFSPSQGTSGMRVPSMLLAGQRDGTVTPSSVRNLYNAIPATTEKAYLELTGAGHGFPTSANSVMMRKVIPWLKIFVDQDTRYQQFLCPLVDWTGITSYQSSCPLIPGGSTGTTYNLVNSSGKCADVNAASQVNGAALLLWTCHTNPNQRWTETSAKELRVYDNPKCMDAGAAQQGTRVTINSCSGGGSQKWTVNANGTVTNDLSGRCLGAAGGATTDNTPLVVASCDGSPGQQWTKQS [TEP093]”, in series [1], the “purified protein yield per well” value came out at 166 µg. In addition, in series [2], the melting temperature amounted to 69.7 C. Also, the PET hydrolysis in series [3] (setting [12]) is 4; in series [3] (setting [13]), 12; in series [3] (setting [14]) it was 31; in series [3] (setting [15]), 28; in series [3] (setting [16]), less than 3; in series [3] (setting [17]) it was 4. For the same sequence, the PET hydrolysis in series [3] (setting [18]) and in series [3] (setting [19]) was 7 in each case.

For the origin of these results see the supplement of paper PMC12455559.
